US20090297520A1
Where two headings read alike, the source gives them in different places. Ends that are not written are not given here.

Experiments:
Assay in all cases: cell-based or functional assay
[1] = molecular target: human Kv1.3 (human) (UniProt P22001)
[2] = molecular target: human Kv1.1 (human) (UniProt Q09470)
[3] = molecular target: human Kv1.3 (human) (UniProt P22001); remark: listed apart in the source

Chain of human Kv1.1 (human) (Q09470 whole entry): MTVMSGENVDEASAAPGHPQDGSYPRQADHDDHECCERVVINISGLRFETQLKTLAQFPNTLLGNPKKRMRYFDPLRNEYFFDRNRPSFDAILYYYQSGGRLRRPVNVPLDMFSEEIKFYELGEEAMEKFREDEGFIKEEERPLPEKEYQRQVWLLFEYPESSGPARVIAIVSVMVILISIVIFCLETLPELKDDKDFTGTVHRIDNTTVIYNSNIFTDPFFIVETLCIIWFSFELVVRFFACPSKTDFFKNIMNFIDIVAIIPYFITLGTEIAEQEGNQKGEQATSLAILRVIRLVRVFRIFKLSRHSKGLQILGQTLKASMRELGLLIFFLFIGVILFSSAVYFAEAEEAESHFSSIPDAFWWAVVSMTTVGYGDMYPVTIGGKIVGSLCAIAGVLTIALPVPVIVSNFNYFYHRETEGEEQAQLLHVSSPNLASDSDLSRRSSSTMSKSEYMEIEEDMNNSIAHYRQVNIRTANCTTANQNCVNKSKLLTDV
Chain of human Kv1.3 (human) (P22001 whole entry): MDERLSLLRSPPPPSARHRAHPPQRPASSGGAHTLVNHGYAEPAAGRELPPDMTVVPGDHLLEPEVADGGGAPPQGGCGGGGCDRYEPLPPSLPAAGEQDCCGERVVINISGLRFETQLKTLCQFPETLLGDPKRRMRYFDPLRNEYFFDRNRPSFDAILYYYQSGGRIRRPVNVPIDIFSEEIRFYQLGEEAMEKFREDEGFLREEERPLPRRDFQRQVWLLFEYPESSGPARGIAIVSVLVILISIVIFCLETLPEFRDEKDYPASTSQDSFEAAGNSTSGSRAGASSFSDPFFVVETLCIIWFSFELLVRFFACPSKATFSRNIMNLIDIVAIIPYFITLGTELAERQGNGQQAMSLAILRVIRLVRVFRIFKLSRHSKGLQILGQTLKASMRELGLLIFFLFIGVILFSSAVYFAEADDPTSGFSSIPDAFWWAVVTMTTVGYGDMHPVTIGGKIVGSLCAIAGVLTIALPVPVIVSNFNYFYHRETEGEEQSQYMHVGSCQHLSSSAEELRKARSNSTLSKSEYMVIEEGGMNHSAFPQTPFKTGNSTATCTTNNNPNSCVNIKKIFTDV

## 20k PEG-OSK1[Ala29, 1Nal34] (peptide)
[1]
  WB/IFNg (IC50, nM), human whole blood: 0.081 nM
  WB/IL-2 (IC50, nM), human whole blood: 0.049 nM

## 20k PEG-ShK (peptide)
[1]
  WB/IFNg (IC50, nM), human whole blood: 0.065 nM
  WB/IL-2 (IC50, nM), human whole blood: 0.046 nM

## E. coli-derived Fc-L-OSK1 (Fc fusion)
[1]
  Kv1.3 IC50 by WCVC (nM), whole cell patch clamp on HEK293/Kv1.3 cells: 3.2 nM

## E. coli-derived Fc-L-ShK[1-35] (Fc fusion)
[1]
  Kv1.3 IC50 by WCVC (nM), whole cell patch clamp on HEK293/Kv1.3 cells: 1.4 nM

## E. coli-derived Fc-L-ShK[2-35] (Fc fusion)
[1]
  Kv1.3 IC50 by IWQ (nM), IonWorks planar patch clamp on CHO/Kv1.3 cells: 2.8 nM
  Kv1.3 IC50 by WCVC (nM), whole cell patch clamp on HEK293/Kv1.3 cells: 1.3 nM

## E. coli-derived ShK[2-35]-L-Fc (Fc fusion)
[1]
  Kv1.3 IC50 by IWQ (nM), IonWorks planar patch clamp on CHO/Kv1.3 cells: 4.9 nM

## E. coli-derived Shk[1-35]-L-Fc (Fc fusion)
[1]
  Kv1.3 IC50 by IWQ (nM), IonWorks planar patch clamp on CHO/Kv1.3 cells: 2.4 nM

## Fc-L5-ShK[2-35] (CHO-derived, bivalent dimeric) (Fc fusion)
[1]
  IC50, block of outward potassium current, whole cell patch clamp: 100 pM

## Fc-L10-OSK1 (Fc fusion)
[2]
  hKv1.1: IC50 [pM], whole cell patch clamp: 41600 pM

## Fc-L10-ShK[2-35] (CHO-derived, bivalent dimeric) (Fc fusion)
[1]
  IC50, block of outward potassium current, whole cell patch clamp: 115 pM

## Fc-L25-ShK[2-35] (CHO-derived, bivalent dimeric) (Fc fusion)
[1]
  IC50, whole cell patch clamp on HEK293/Kv1.3 cells: 150 pM

## GGGGS-Osk1 (peptide)
[1]
  WB/IFNg (IC50, nM), human whole blood: 2.2 nM
  WB/IL-2 (IC50, nM), human whole blood: 1.36 nM

## OSK1 (synthetic Osk1 toxin peptide)
[1]
  IC50, block of outward potassium current, whole cell patch clamp: 39 pM

## OSK1-K16, D20 (peptide)
[1]
  WB/IFNg (IC50, nM), human whole blood: 1.32 nM
  WB/IL-2 (IC50, nM), human whole blood: 1.58 nM

## PEG-Fc-L10-OSK1, pool 2 (Fc fusion)
[1]
  IC50 Sustained (nM), pool 2: 0.332 nM

## PEG-Fc-L10-OSK1, pool 3 (Fc fusion)
[1]
  IC50 Sustained (nM), pool 3: 0.256 nM

## PEG-Fc-L10-SHK(2-35), pool 2 (Fc fusion)
[1]
  IC50 Sustained (nM), pool 2: 0.158 nM

## PEG-Fc-L10-SHK(2-35), pool 3 (Fc fusion)
[1]
  IC50 Sustained (nM), pool 3: 0.175 nM

## PEG-OSK1 (peptide)
[1]
  peak IC50, whole cell patch clamp: 1280 pM

## Synthetic OSK1 (peptide)
[1]
  hKv1.3: IC50 [pM], whole cell patch clamp: 39 pM
[2]
  hKv1.1/hKv1.3 (ratio of IC50s, reference hKv1.3): 4
  hKv1.1: IC50 [pM], whole cell patch clamp: 160 pM

## native OSK1 (peptide)
[1]
  Kv1.3 (IC50, pM), whole cell patch clamp ePhys: 39 pM
  Kv1.3 Selectivity (=Kv1.1/Kv.3 IC50): 5 fold
[2]
  Kv1.1 (IC50, pM), whole cell patch clamp ePhys: 202 pM

## SCIDTIPKSRCTAFQCKHSMKYRLSFCRKTCGTC (not fully specified; ends and bridges not checked) [ShK[2-35] (synthetic peptide analog)]
[3]
  IC50, block of outward potassium current, whole cell patch clamp: 49 pM

## RSCIDTIPKSRCTAFQCKHSMKYRLSFCRKTCGTC (not fully specified (N-terminus); ends and bridges not checked) [20K PEG-ShK[1-35]]
[3]
  peak IC50, whole cell patch clamp: 169 pM
